Target: purified HLA-A2.1 molecules (human)

Substance	IC50
HBV Core 18 (HBV core 18-27) peptide […] (peptide; other documents disagree on this pair)	3 nM
HBV Pol 551-A (native HBV pol 551-559) peptide […] (peptide; other documents disagree on this pair)	200 nM

From patent US20030220285A1
